Data published in patent US12497462 (IMMUNITYBIO, dated 2025).
Changes are numbered by the printed parent chain. One block for each binder: values may come before it.

Legend:
[1] = biological target: T1, Human CD26 on transfected CHO cells (human, UniProt P27487 1-766); assay: flow cytometry on human CD26-transfected CHO cells, antibody 50 nM, goat anti-human IgG-PE
T1 construct: whole, on cells; also called CHO26; CD26 positive CHO cells

[2] = biological target: T2, Human CD26-Fc fusion protein (human); assay: ELISA, CD26-Fc coated, purified IgG1 kappa antibody in 3-fold steps, goat anti-human kappa-HRP/ABTS
T2 construct: also called CD26/beads

[3] = biological target: T2, Human CD26-Fc fusion protein; assay: ELISA, CD26-Fc coated, purified IgG1 kappa antibody, goat anti-human kappa-HRP/ABTS
[4] = biological target: T2, Human CD26-Fc fusion protein; assay: competition ELISA on coated CD26-Fc (5 µg/mL): ADA is varied and the blocked molecule is biotinylated CD26Ab-01D at 5 nM, read with SAHRP/ABTS
goat anti-human IgG = assay: ELISA, goat anti-human IgG coated (control plate), goat anti-human kappa-HRP/ABTS

T2 sequence (chain, as listed by the source): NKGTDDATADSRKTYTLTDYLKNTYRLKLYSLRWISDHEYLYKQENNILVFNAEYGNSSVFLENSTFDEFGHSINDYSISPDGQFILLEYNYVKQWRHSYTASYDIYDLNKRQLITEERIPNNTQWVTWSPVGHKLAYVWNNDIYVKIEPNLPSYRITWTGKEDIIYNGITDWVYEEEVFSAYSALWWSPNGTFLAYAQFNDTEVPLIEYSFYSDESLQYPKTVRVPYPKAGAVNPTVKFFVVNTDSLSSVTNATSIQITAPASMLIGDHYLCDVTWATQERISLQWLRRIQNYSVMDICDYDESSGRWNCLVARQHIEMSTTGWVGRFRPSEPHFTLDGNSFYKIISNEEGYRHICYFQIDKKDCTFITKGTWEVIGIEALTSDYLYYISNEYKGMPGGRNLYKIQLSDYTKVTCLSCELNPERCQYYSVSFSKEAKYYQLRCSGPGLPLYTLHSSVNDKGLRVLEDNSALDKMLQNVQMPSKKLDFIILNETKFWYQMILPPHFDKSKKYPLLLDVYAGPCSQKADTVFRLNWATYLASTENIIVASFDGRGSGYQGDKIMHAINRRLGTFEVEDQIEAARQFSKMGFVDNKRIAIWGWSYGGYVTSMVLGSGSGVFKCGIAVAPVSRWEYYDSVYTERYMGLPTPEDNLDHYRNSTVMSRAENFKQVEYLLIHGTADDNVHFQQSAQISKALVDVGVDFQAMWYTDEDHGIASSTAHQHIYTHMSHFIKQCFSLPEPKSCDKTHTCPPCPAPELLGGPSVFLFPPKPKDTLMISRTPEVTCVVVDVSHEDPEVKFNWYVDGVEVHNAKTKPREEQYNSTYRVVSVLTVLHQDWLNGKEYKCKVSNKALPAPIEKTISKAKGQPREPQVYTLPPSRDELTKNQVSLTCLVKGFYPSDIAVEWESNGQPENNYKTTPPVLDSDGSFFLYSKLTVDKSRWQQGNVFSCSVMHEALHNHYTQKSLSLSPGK
T1 sequence (P27487 whole entry): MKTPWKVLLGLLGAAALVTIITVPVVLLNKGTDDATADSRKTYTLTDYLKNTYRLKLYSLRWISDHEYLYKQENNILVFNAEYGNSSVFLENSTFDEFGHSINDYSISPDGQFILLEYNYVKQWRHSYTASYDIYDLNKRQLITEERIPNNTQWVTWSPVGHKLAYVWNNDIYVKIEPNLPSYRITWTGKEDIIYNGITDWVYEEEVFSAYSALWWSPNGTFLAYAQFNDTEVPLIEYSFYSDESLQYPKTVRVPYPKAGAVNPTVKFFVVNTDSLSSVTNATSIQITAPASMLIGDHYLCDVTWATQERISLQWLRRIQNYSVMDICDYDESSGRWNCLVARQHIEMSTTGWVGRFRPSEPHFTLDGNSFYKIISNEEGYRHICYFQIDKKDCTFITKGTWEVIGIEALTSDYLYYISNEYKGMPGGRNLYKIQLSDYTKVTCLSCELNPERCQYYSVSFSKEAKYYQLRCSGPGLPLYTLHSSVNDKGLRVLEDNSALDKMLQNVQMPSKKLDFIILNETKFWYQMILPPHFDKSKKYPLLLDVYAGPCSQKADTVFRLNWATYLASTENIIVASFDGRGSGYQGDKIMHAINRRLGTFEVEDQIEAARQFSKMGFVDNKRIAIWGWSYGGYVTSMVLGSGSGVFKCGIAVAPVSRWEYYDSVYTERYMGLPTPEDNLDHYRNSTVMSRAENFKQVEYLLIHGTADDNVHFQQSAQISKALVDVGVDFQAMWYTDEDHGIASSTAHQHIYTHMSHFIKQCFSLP

- MFI [1]: 105
- binding result [3]: no binding (tested: 500000 pM)
B2: CD26Ab-10B anti-CD26 IgG1 kappa monoclonal antibody (antibody, V domains shown)
VH: EVQLVESGGGLVQPGGSLRLSCAASGFTISDYSIHWVRQAPGKGLEWVASIWPYGGFTSYADSVKGRFTISADTSKNTAYLQMNSLRAEDTAVYYCARFHSSSGDMDYWGQGTLVTVSS
VL: DIQMTQSPSSLSASVGDRVTITCRASQDVWGYVAWYQQKPGKAPKLLIFASGALYSGVPSRFSGSGSGTDFTLTISSLQPEDFATYYCQQYFNWPITFGQGTKVEIKR
notes: Very low production; not biotinylated

- IC50 (read off the curve) [4]: ~0.01 nM
B3: Human adenosine deaminase (ADA) (enzyme, UniProt P00813 1-363, looked up)
chain: MAQTPAFDKPKVELHVHLDGSIKPETILYYGRRRGIALPANTAEGLLNVIGMDKPLTLPDFLAKFDYYMPAIAGCREAIKRIAYEFVEMKAKEGVVYVEVRYSPHLLANSKVEPIPWNQAEGDLTPDEVVALVGQGLQEGERDFGVKARSILCCMRHQPNWSPKVVELCKKYQQQTVVAIDLAGDETIPGSSLLPGHVQAYQEAVKSGIHRTVHAGEVGSAEVVKEAVDILKTERLGHGYHTLEDQALYNRLRQENMHFEICPWSSYLTGAWKPDTEHAVIRLKNDQANYSLNTDDPLIFKSTLDTDYQMTKRDMGFTEEEFKRLNINAAKSSFLPEDEKRELLDLLYKAYGMPPSASAGQNL
notes: Bought reagent; also called Human ADA (R&D systems)

The remaining lines, values behind:

B1: CD26Ab-01D anti-CD26 IgG1 kappa monoclonal antibody (antibody, V domains shown)
VH: B2 VH with S30N, Y32S, S33Y, S50W, S59Y, H100L, S101G, G104S, D105I
VL: B2 VL with W30N, G31S, Y32N, A50G, A53G, F92S, N93S, W94Y, I96L, I106T
- MFI [1]: 1700
- binding result [2]: binds

B4: CD26Ab-04A anti-CD26 IgG1 kappa monoclonal antibody (antibody, V domains shown)
VH: B2 VH with T28A, S30N, D31N, H100F, S103Y
VL: B2 VL with W30S, Y32G, F49Y, A50G, S51T, G52S, A53G, Y91G, F92G, N93D
notes: Used biotinylated in some assays; also called CD26-04A
- MFI [1]: 4360
- EC50 (read off the curve) (goat anti-human IgG): ~0.4 nM
- EC50 (read off the curve) [2]: ~1 nM
